Experimental data taken from patent US20180118786A1 (ECOLE POLYTECHNIQUE FEDERALE DE LAUSANNE EPFL, published 2018).
Starred links: 1 amine or outer side, 2 acyl side, 3 side chain; linkers in the order of their positions; H or OH if unused. Positions of bridges follow the written chain, without caps; N, C: chain ends. Non-standard residues stand in square brackets, D forms with d. No end group written: not given here. TATA = O=C(CC[*:1])N1CN(C(=O)CC[*:2])CN(C(=O)CC[*:3])C1; Phe(4-NO2) = N[C@@H](Cc1ccc([N+](=O)[O-])cc1)C(=O)O; Phe(3-Me) = Cc1cccc(C[C@H](N)C(=O)O)c1; Phe(4-F) = N[C@@H](Cc1ccc(F)cc1)C(=O)O; Phe(2-F) = N[C@@H](Cc1ccccc1F)C(=O)O; 3Pal = N[C@@H](Cc1cccnc1)C(=O)O

Target: T1, human β-FXIIa (HFXIIAB; Molecular Innovations) (human, UniProt P00748 354-362; P00748 373-615, limits assumed)
T1 construct: domain: catalytic domain; Bought; also called human b-FXIIa; human FXIIa
T1 sequence (P00748 373-615 limits assumed, one chain of several): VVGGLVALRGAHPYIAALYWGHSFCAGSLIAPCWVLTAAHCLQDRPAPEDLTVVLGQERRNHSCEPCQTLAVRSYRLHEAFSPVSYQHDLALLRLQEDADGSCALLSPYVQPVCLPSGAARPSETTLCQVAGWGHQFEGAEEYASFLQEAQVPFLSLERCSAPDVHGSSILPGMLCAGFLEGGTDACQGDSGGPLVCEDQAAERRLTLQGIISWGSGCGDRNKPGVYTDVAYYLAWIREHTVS
Assay: protease inhibition assay, fluorogenic substrate

| Binder | Ki [nM] |
| --- | --- |
| RCFRLPCRQLRCRW-NH2 (linker 2-7-12 via TATA; N-terminus assumed; SMILES CC(C)C[C@@H]1NC(=O)[C@H](CCC(N)=O)NC(=O)[C@H](CCCNC(=N)N)NC(=O)[C@@H]2CSCCC(=O)N3CN(CN(C3)C(=O)CCSC[C@H](NC(=O)[C@@H](N)CCCNC(=N)N)C(=O)N[C@@H](Cc3ccccc3)C(=O)N[C@@H](CCCNC(=N)N)C(=O)N[C@@H](CC(C)C)C(=O)N3CCC[C@H]3C(=O)N2)C(=O)CCSC[C@@H](C(=O)N[C@@H](CCCNC(=N)N)C(=O)N[C@@H](Cc2c[nH]c3ccccc23)C(N)=O)NC(=O)[C@H](CCCNC(=N)N)NC1=O) [peptide 2 (FXII618 with a tryptophan appended to the C-terminus)] | 26 |
| RCWRLPCRQLRCRW-NH2 (linker 2-7-12 via TATA; N-terminus assumed; SMILES CC(C)C[C@@H]1NC(=O)[C@H](CCC(N)=O)NC(=O)[C@H](CCCNC(=N)N)NC(=O)[C@@H]2CSCCC(=O)N3CN(CN(C3)C(=O)CCSC[C@H](NC(=O)[C@@H](N)CCCNC(=N)N)C(=O)N[C@@H](Cc3c[nH]c4ccccc34)C(=O)N[C@@H](CCCNC(=N)N)C(=O)N[C@@H](CC(C)C)C(=O)N3CCC[C@H]3C(=O)N2)C(=O)CCSC[C@@H](C(=O)N[C@@H](CCCNC(=N)N)C(=O)N[C@@H](Cc2c[nH]c3ccccc23)C(N)=O)NC(=O)[C@H](CCCNC(=N)N)NC1=O) [peptide 3 (peptide 2, Phe3 to tryptophan)] | 26 |
| RC[Phe(4-F)]RLPCRQLRCRW-NH2 (linker 2-7-12 via TATA) [peptide 58 (peptide 2, fluorine in para-position of Phe3)] | 2.31 |
| RC[Phe(2-F)]RLPCRQLRCRW-NH2 (linker 2-7-12 via TATA; N-terminus assumed; SMILES CC(C)C[C@@H]1NC(=O)[C@H](CCC(N)=O)NC(=O)[C@H](CCCNC(=N)N)NC(=O)[C@@H]2CSCCC(=O)N3CN(CN(C3)C(=O)CCSC[C@H](NC(=O)[C@@H](N)CCCNC(=N)N)C(=O)N[C@@H](Cc3ccccc3F)C(=O)N[C@@H](CCCNC(=N)N)C(=O)N[C@@H](CC(C)C)C(=O)N3CCC[C@H]3C(=O)N2)C(=O)CCSC[C@@H](C(=O)N[C@@H](CCCNC(=N)N)C(=O)N[C@@H](Cc2c[nH]c3ccccc23)C(N)=O)NC(=O)[C@H](CCCNC(=N)N)NC1=O) [peptide 56 (peptide 2, fluorine in ortho-position of Phe3)] | 13.1 |
| RC[3Pal]RLPCRQLRCRW-NH2 (linker 2-7-12 via TATA; N-terminus assumed; SMILES CC(C)C[C@@H]1NC(=O)[C@H](CCC(N)=O)NC(=O)[C@H](CCCNC(=N)N)NC(=O)[C@@H]2CSCCC(=O)N3CN(CN(C3)C(=O)CCSC[C@H](NC(=O)[C@@H](N)CCCNC(=N)N)C(=O)N[C@@H](Cc3cccnc3)C(=O)N[C@@H](CCCNC(=N)N)C(=O)N[C@@H](CC(C)C)C(=O)N3CCC[C@H]3C(=O)N2)C(=O)CCSC[C@@H](C(=O)N[C@@H](CCCNC(=N)N)C(=O)N[C@@H](Cc2c[nH]c3ccccc23)C(N)=O)NC(=O)[C@H](CCCNC(=N)N)NC1=O) [peptide 54 (peptide 2, carbon replaced with nitrogen in meta-position of the phenyl ring of Phe3)] | 8.4 |
| RC[Phe(4-NO2)]RLPCRQLRCRW-NH2 (linker 2-7-12 via TATA; also: description names 2-nitro-phenylalanine, example says para) [peptide 60 (peptide 2, nitro group in para position of Phe3)] | 4.5 |
| RC[Phe(3-Me)]RLPCRQLRCRW-NH2 (linker 2-7-12 via TATA; N-terminus assumed; SMILES Cc1cccc(C[C@@H]2NC(=O)[C@@H](NC(=O)[C@@H](N)CCCNC(=N)N)CSCCC(=O)N3CN4CN(C3)C(=O)CCSC[C@H](NC(=O)[C@@H]3CCCN3C(=O)[C@H](CC(C)C)NC(=O)[C@H](CCCNC(=N)N)NC2=O)C(=O)N[C@@H](CCCNC(=N)N)C(=O)N[C@@H](CCC(N)=O)C(=O)N[C@@H](CC(C)C)C(=O)N[C@@H](CCCNC(=N)N)C(=O)N[C@H](C(=O)N[C@@H](CCCNC(=N)N)C(=O)N[C@@H](Cc2c[nH]c3ccccc23)C(N)=O)CSCCC4=O)c1) [peptide 52 (peptide 2, methyl group in meta-position of the phenyl ring of Phe3)] | 10.4 |
